Here are results for two molecules from patent US20110011742, “METHOD FOR THE PURIFICATION OF BIOLOGICAL MACROMOLECULES” (published 2011).

Data set [1] addresses T1, Sp1 (UniProt P08047 P08047:2-785). The data set is described as follows: probe mixture, gel-separated complex hybridised to microarray; signal 0 at Y-11t; room temperature 30 min. The settings on record: tags: Promega recombinant; label: IRDye 700 (gel) or 5'-Cy3 on YZ-11f (microarray); partially double-stranded, 3' single-strand tag on YZ-11f. Here is the method: (§1) The Sp1 protein was mixed with a group of Cy3 labeled probes (YZ-7, YZ-9 and YZ-11) at room temperature for 30 minutes and then the protein/DNA complex was separated on the polyacrylamide column using the separation method described in Example 1. The collected protein/DNA complex was concentrated, the buffer changed to 5×SSC, 0.1% SDS, and the DNA hybridized to a microarray slide containing oligonucleotide DNA sequences shown in Table 2. Small amounts of YZ-2 and YZ-4 were added (shown in Table 3 and complementary to the sequences of YZ-1 and YZ-3). These sequences, shown in Table 3, serve as a positive control and reference signal. Only the Sp1 and control probes yielded positive signals (see Table 4). […] The microarray results (shown in Table 4) was consistent with the result from the gel shift assay.

In data set [2] the target is T1, Sp1. The data set is described as follows: probe mixture, gel-separated complex hybridised to microarray; signal 0 at the tag-complementary spot Y-14 (Y-7t also 0); room temperature 30 min. The settings on record: tags: Promega recombinant; label: 5'-Cy3 on YZ-7f (microarray); partially double-stranded, 3' single-strand tag on YZ-7f. How it is done:
as §1

T1 sequence (P08047 2-785, one chain of several): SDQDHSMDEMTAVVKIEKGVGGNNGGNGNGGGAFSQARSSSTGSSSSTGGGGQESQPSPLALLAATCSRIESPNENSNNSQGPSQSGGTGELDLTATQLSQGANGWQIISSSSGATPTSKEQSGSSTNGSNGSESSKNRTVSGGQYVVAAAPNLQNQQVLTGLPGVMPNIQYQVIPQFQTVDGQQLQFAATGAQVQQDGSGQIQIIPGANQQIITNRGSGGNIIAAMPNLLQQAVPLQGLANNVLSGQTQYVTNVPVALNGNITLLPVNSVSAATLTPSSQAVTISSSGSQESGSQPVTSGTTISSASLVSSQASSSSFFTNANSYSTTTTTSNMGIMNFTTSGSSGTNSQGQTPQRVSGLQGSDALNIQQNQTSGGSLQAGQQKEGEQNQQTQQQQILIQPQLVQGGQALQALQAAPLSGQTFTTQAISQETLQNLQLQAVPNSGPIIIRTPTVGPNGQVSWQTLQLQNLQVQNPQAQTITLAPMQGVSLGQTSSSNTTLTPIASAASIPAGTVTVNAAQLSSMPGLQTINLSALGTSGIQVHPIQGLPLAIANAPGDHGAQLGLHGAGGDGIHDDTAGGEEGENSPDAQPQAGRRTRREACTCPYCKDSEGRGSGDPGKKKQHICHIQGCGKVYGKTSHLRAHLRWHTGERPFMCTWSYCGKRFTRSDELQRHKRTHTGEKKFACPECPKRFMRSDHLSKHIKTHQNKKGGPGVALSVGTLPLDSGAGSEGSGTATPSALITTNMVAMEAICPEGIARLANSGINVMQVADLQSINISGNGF

B1: YZ-11 (ER-alpha probe) (dsDNA)
DNA 1: CCTGCCAGGTCGCGCTGCCCTCCTTCTACCATGCCTTAGGAGAATTGTTTTGTTT
DNA 2: GGTAGAAGGAGGGCAGCGCGACCTGGCAGG
Regarding B1, the binding result with Sp1 [1] was “no binding”.

B2: YZ-7 (NF-kb probe) (dsDNA)
DNA 1: TCCTAGCTTCAGAGGGGACTTTCCGAGAGGACCTGAAGAAATGGTTTTGAATCAT
DNA 2: CCTCTCGGAAAGTCCCCTCTGAAGCTAGGA
Consider B2, for which the binding result with Sp1 [2] is on record as “no binding”.
